Molecular target: the molecule itself
Assay: SDD-AGE; purified proteins loaded in 0.5 x TBE, 10% glycerol, 2% SDS at room temperature; 1.5% agarose gel with 0.1% SDS; immunoblot

B1: GST-tagged dTrbd^FL (enzyme, Drosophila melanogaster, UniProt Q9VH90 1-778, looked up)
chain: MCDTKDDAQKWKCETCTYENYPSSLKCTMCQASKPLLNEDIFRLSPAQESCTVAEEAAAVEVAVMSPTPSSTCYSLQPQSQARQSNVADSEKWPCKVCTYLNWPRSLRCVQCCTKRGGEAIERGKKDMDNEADGDRAGEALQALRISGSEENLANKPVQLIGATASHRLSLSRGIDDATHLNNLANASHNQSQSQHRQPVLQQQMQLQLQPQQQRESSSSAAVPPQQQKQCYVSKWACNSCTYENWPRSIKCSMCGKTREREISGSQNDLHASSSLNSQEENQQQLQQPNVDTVSVNNSFNKKHIYQLGSSETINNCDTLQERQERRQRQIRRQVDWQWLNACLGVVENNYSAVEAYLSCGGNPARSLTSTEIAALNRNSAFDVGHTLIHLAIRFHREEMLPMLLDQISGSGPGIKRVPSYVAPDLAADIRRHFANTLRLRKSGLPCHYVQKHATFALPAEIEELPIPIQEQLYDELLDRDAQKQLETPPPALNWSLEITARLSSRMFVLWNRSAGDCLLDSAMQATWGVFDRDNILRRALADTLHQCGHVFFTRWKEYEMLQASMLHFTLEDSQFEEDWSTLLSLAGQPGSSLEQLHIFALAHILRRPIIVYGVKYVKSFRGEDIGYARFEGVYLPLFWDQNFCTKSPIALGYTRGHFSALVPMEPFTRIDGRRDDVEDVTYLPLMDCELKLLPIHFLTQSEVGNEESMMRQWLDVCVTDGGLLVAQQKLSKRPLLVAQMLEEWLNHYRRIAQVITAPFIRRPQITHYSSDGDSDEE
notes: dTrbd, Drosophila deubiquitinase, full length; also called GST-dTrbd^FL; source: E. coli BL21, purified (Glutathione Sepharose 4B)
binding result: binds
